From patent US20260242478A1 (published 2026)
Where no end group is shown, it is not given here.

B1: Phage-1471 peptide (Peptide-92 library, SEQ ID NO: 1767) (peptide)
peptide: LCTAGLAYNWPTCL
B2: Phage-1465 peptide (Peptide-92 library, SEQ ID NO: 1761) (peptide)
peptide: LCKPGVPYQWPTCL
B3: Phage-1462 peptide (Peptide-92 library, SEQ ID NO: 1758) (peptide)
peptide: TCAAGASYQWPLCF
B4: Phage-1468 peptide (Peptide-92 library, SEQ ID NO: 1764) (peptide)
peptide: WCAEFFNYHWPLCF
B5: Phage-1469 peptide (Peptide-92 library, SEQ ID NO: 1765) (peptide)
peptide: TCSAGFSLQLSICL
B6: Phage-1463 peptide (Peptide-92 library, SEQ ID NO: 1759) (peptide)
peptide: SCAAGASYSWPACF
B7: Phage-1474 peptide (Peptide-92 library, SEQ ID NO: 1770) (peptide)
peptide: TCAAGANYPWPLCL
B8: Phage-1466 peptide (Peptide-92 library, SEQ ID NO: 1762) (peptide)
peptide: MCTAGALYNWPTCL
B9: Phage-1464 peptide (Peptide-92 library, SEQ ID NO: 1760) (peptide)
peptide: SCSAGFHYPWPICL
B10: Phage-1472 peptide (Peptide-92 library, SEQ ID NO: 1768) (peptide)
peptide: GCAAGAHYPWPFCL
B11: Phage-1461 peptide (Peptide-92 library, SEQ ID NO: 1757) (peptide)
peptide: YCSAGAQWPWPICL
B12: Phage-1470 peptide (Peptide-92 library, SEQ ID NO: 1766) (peptide)
peptide: SCAAGASYPWPQCL
B13: Phage-1467 peptide (Peptide-92 library, SEQ ID NO: 1763) (peptide)
peptide: TCAAGAHYPWPYCL
B14: Phage-1473 peptide (Peptide-92 library, SEQ ID NO: 1769) (peptide)
peptide: TCAAGAVWEWPMCF
B15: Phage-1424 (peptide)
peptide: MCAAGAHYTWPTCL
modifications: cysteine pairing not given here; also: fused to phage pIII protein
B16: Phage-1429 (peptide)
peptide: TCAAGAAYTWPACF
B17: Phage-1419 (peptide)
peptide: TCAAGAHYTWPECF
B18: Phage-1428 (peptide)
peptide: WCAAVFSYTWSPCL
B19: Phage-1430 (peptide)
peptide: TCAAGATYEWPTCL
B20: Phage-1417 (peptide)
peptide: MCAAGATYPWPLCL
modifications: cysteine pairing not given here; also: fused to phage pIII protein
B21: Phage-1423 (peptide)
peptide: QCSAGAAWPWPFCL
B22: Phage-1425 (peptide)
peptide: TCSAGATYEWPWCM
B23: Phage-1427 (peptide)
peptide: TCAAGATYEWPYCF
B24: Phage-1422 (peptide)
peptide: LCAEFFNYPWPLCL
B25: Phage-1421 (peptide)
peptide: SCAAGATYSWPMCL
B26: Phage-1426 (peptide)
peptide: MCSAGANYPWPWCL
B27: Phage-1418 (peptide)
peptide: TCAAGATYSWPWCF
B28: Phage-1420 (peptide)
peptide: SCAAVFSYSWPMCF
B29: Phage-1416 (Peptide-92 library clone) (peptide)
peptide: TCAAGANYPWPYCL
B30: Phage-1501 (Peptide-92 library clone, SEQ ID NO: 1797) (peptide)
peptide: SCAAGATYTWPMCI
notes: Tested as clonal phage supernatant; not shown: fused to pIII of the bacteriophage
B31: Phage-1498 (Peptide-92 library clone, SEQ ID NO: 1794) (peptide)
peptide: LCSAGAMYPWPLCY
notes: as for B30
B32: Phage-1502 (Peptide-92 library clone, SEQ ID NO: 1798) (peptide)
peptide: SCAAGLSYPWPDCL
notes: as for B30
B33: Phage-1493 (Peptide-92 library clone, SEQ ID NO: 1789) (peptide)
peptide: SCAAGAHYVWPFCF
notes: as for B30
B34: Phage-1499 (Peptide-92 library clone, SEQ ID NO: 1795) (peptide)
peptide: TCAAGAMWVWPTCL
notes: as for B30
B35: Phage-1494 (Peptide-92 library clone, SEQ ID NO: 1790) (peptide)
peptide: TCSAGATYNWPWCF
notes: as for B30
B36: Phage-1503 (Peptide-92 library clone, SEQ ID NO: 1799) (peptide)
peptide: TCAAGAGWAWPFCF
notes: as for B30
B37: Phage-1491 (Peptide-92 library clone, SEQ ID NO: 1787) (peptide)
peptide: TCSAGAHWTWPLCF
notes: as for B30
B38: Phage-1496 (Peptide-92 library clone, SEQ ID NO: 1792) (peptide)
peptide: WCAAGAMYPWPLCL
notes: as for B30
B39: Phage-1492 (Peptide-92 library clone, SEQ ID NO: 1788) (peptide)
peptide: TCSAGAHFAWPMCF
notes: as for B30
B40: Phage-1490 (Peptide-92 library clone, SEQ ID NO: 1786) (peptide)
peptide: RCAAGVMYDWPVCL
notes: as for B30
B41: Phage-1497 (Peptide-92 library clone, SEQ ID NO: 1793) (peptide)
peptide: LCNAGAPYKWPTCL
notes: as for B30
B42: Phage-1500 (Peptide-92 library clone, SEQ ID NO: 1796) (peptide)
peptide: LCAAGANYPWPACL
notes: as for B30
B43: Phage-1495 (Peptide-92 library clone, SEQ ID NO: 1791) (peptide)
peptide: TCSAGASYPWPVCL
notes: as for B30

These binders were tested against Anti-CD28 Fab (SEQ ID NOs: 696, 697) (assay: phage binding ELISA; biotinylated anti-CD28 Fab on neutravidin plate, clonal phage detected with anti-M13 HRP).
Target sequence in this assay (VH, as listed by the source, chain 1 of 2): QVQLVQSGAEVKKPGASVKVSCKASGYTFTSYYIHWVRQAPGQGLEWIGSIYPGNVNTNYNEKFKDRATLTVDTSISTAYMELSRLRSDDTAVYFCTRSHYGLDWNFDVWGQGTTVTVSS
Target sequence in this assay (VL, as listed by the source, chain 2 of 2): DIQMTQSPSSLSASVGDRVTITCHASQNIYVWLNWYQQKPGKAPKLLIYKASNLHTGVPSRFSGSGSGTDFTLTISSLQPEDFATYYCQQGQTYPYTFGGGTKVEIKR
Method: (§1) Clonal phage were harvested as crude supematants and screened via standard ELISAs. […] Prior to the addition of clonal phage, wells were incubated with blocking buffer and CD28 antigen or blocking buffer alone. Without washing or aspirating, clonal phage supematants were then added to the wells and incubated for a short time. Wells were then washed followed by detection of bound phage using a horse radish conjugated anti-M13 antibody.

Row | Binder | Anti-CD28 Fab (SEQ ID NOs: 696, 697) signal
1 | B1 | 1.77
2 | B2 | 1.78
3 | B3 | 1.79
4 | B4 | 1.77
5 | B5 | 1.77
6 | B6 | 1.79
7 | B7 | 1.75
8 | B8 | 1.78
9 | B9 | 1.79
10 | B10 | 1.76
11 | B11 | 1.79
12 | B12 | 1.77
13 | B13 | 1.77
14 | B14 | 1.76

These binders were tested against Anti-CD28 Fab (SEQ ID NOs: 696, 697) (assay: phage binding ELISA; biotinylated anti-CD28 Fab on neutravidin plate, clonal phage supernatant, anti-M13 HRP detection;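 note: wells pretreated with blocking buffer, either plus or minus CD28 antigen, then given crude phage supernatant briefly without washing in between, then washed before anti-M13 HRP readout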).
Target sequence in this assay (VH, as listed by the source, chain 1 of 2): as the sequence (VH, as listed by the source, chain 1 of 2) above
Target sequence in this assay (VL, as listed by the source, chain 2 of 2): as the sequence (VL, as listed by the source, chain 2 of 2) above
Method: as §1

Row | Binder | Anti-CD28 Fab (SEQ ID NOs: 696, 697) signal
15 | B15 | 1.97
16 | B16 | 1.96
17 | B17 | 1.99
18 | B18 | 1.96
19 | B19 | 1.96
20 | B20 | 1.99
21 | B21 | 1.97
22 | B22 | 1.97
23 | B23 | 1.96
24 | B24 | 1.98
25 | B25 | 1.99
26 | B26 | 1.97
27 | B27 | 1.99
28 | B28 | 1.99

What follows are binders tested against T1, Anti-CD28 Fab (SEQ ID NOs: 696, 697) (assay: phage binding ELISA; clonal phage on plate-captured biotinylated anti-CD28 Fab).
T1 construct: In the phage ELISA the Fab was biotinylated and captured on neutravidin coated plates
T1 sequence (VH, as listed by the source, chain 1 of 2): as the sequence (VH, as listed by the source, chain 1 of 2) above
T1 sequence (VL, as listed by the source, chain 2 of 2): as the sequence (VL, as listed by the source, chain 2 of 2) above
Method: as §1

Row | Binder | Anti-CD28 Fab (SEQ ID NOs: 696, 697) signal
29 | B29 | 1.99

These binders were tested against T2, Anti-CD28 Fab (SEQ ID NOs: 696, 697) (assay: phage ELISA; Fab-coated wells pre-incubated with CD28 antigen as competitor, clonal phage supernatant, anti-M13 HRP detection).
T2 construct: In the phage ELISA the Fab was biotinylated and captured on neutravidin coated plates
T2 sequence (VH, as listed by the source, chain 1 of 2): as the sequence (VH, as listed by the source, chain 1 of 2) above
T2 sequence (VL, as listed by the source, chain 2 of 2): as the sequence (VL, as listed by the source, chain 2 of 2) above
Method: as §1

Row | Binder | Phage binding ELISA, Anti-CD28 Fab signal in the presence of CD28
30 | B30 | 0.07
31 | B31 | 0.08
32 | B32 | 0.07
33 | B33 | 0.08
34 | B34 | 0.07
35 | B35 | 0.05
36 | B36 | 0.09
37 | B37 | 0.06
38 | B38 | 0.06
39 | B39 | 0.07
40 | B40 | 0.07
41 | B41 | 0.07
42 | B42 | 0.07
43 | B43 | 0.07

The binders below were run against T1, Anti-CD28 Fab (SEQ ID NOs: 696, 697) (assay: phage binding ELISA; clonal phage on plate-captured anti-CD28 Fab pre-incubated with CD28 antigen (competitor)).
Method: (§2) Clonal phage were harvested as crude supematants and screened via standard ELISAs. […] Prior to the addition of clonal phage, wells were incubated with blocking buffer and CD28 antigen or blocking buffer alone. Without washing or aspirating, clonal phage supematants were then added to the wells and incubated for a short time. Wells were then washed followed by detection of bound phage using a horse radish conjugated anti-M13 antibody. Clonal phage of interest were then sent for sequence analysis.

Row | Binder | Anti-CD28 Fab signal in the presence of CD28
44 | B29 | 0.14

Each binder was assayed against Anti-CD28 Fab (SEQ ID NOs: 696, 697) (assay: phage binding ELISA; Fab-coated wells pre-incubated with CD28 antigen as competitor, anti-M13 HRP detection;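 note: crude clonal phage supernatants added without washing after the CD28 pre-incubation, with wells given blocking buffer only (no CD28) as the reference, bound phage read after washing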).
Target sequence in this assay (VH, as listed by the source, chain 1 of 2): as the sequence (VH, as listed by the source, chain 1 of 2) above
Target sequence in this assay (VL, as listed by the source, chain 2 of 2): as the sequence (VL, as listed by the source, chain 2 of 2) above
Method: as §2

Row | Binder | Anti-CD28 Fab signal in the presence of CD28
45 | B15 | 0.07
46 | B16 | 0.06
47 | B17 | 0.07
48 | B18 | 0.07
49 | B19 | 0.08
50 | B20 | 0.07
51 | B21 | 0.08
52 | B22 | 0.07
53 | B23 | 0.06
54 | B24 | 0.06
55 | B25 | 0.09
56 | B26 | 0.08
57 | B27 | 0.07
58 | B28 | 0.06

These binders were tested against Anti-CD28 Fab (SEQ ID NOs: 696, 697) (assay: phage binding ELISA; anti-CD28 Fab on plate pre-incubated with CD28 antigen as competitor).
Target sequence in this assay (VH, as listed by the source, chain 1 of 2): as the sequence (VH, as listed by the source, chain 1 of 2) above
Target sequence in this assay (VL, as listed by the source, chain 2 of 2): as the sequence (VL, as listed by the source, chain 2 of 2) above
Method: as §1

Row | Binder | Anti-CD28 Fab signal in the presence of CD28
59 | B1 | 0.05
60 | B2 | 0.07
61 | B3 | 0.07
62 | B4 | 0.06
63 | B5 | 0.06
64 | B6 | 0.07
65 | B7 | 0.08
66 | B8 | 0.09
67 | B9 | 0.07
68 | B10 | 0.06
69 | B11 | 0.08
70 | B12 | 0.11
71 | B13 | 0.05
72 | B14 | 0.07

What follows are binders tested against T2, Anti-CD28 Fab (SEQ ID NOs: 696, 697) (assay: phage ELISA; biotinylated anti-CD28 Fab on neutravidin plate, clonal phage supernatant, anti-M13 HRP detection;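 note: before phage addition, wells were pretreated with either CD28 antigen in blocking buffer or only blocking buffer, and phage was added without an intervening wash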).
Method: as §1

Row | Binder | Phage binding ELISA, Anti-CD28 Fab signal
73 | B30 | 1.66
74 | B31 | 1.66
75 | B32 | 1.65
76 | B33 | 1.68
77 | B34 | 1.66
78 | B35 | 1.68
79 | B36 | 1.65
80 | B37 | 1.69
81 | B38 | 1.67
82 | B39 | 1.69
83 | B40 | 1.7
84 | B41 | 1.66
85 | B42 | 1.66
86 | B43 | 1.67
